Data reported in PMC9352680, “A comprehensive thermodynamic model for RNA binding by the Saccharomyces cerevisiae Pumilio protein PUF4”.

T1: PUF4 RNA-binding domain (Saccharomyces cerevisiae, UniProt P25339 537-888)
T1 sequence: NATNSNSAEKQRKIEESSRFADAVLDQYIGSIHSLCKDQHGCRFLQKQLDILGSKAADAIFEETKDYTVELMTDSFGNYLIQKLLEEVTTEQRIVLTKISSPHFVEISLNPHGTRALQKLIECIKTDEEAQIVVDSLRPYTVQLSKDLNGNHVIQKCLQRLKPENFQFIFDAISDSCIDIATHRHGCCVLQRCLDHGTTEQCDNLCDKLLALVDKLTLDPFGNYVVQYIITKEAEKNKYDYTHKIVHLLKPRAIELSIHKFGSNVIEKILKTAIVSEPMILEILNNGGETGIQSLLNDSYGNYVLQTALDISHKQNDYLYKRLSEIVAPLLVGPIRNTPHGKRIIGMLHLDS

B1: Ia_S4_P5E.1_K5.1_C5.1_H5.1_A5.1_[T6C]_F5.1_T5.1 (ssRNA)
RNA: UUUGACAACUGAUCGUUCUUUCUUGUAUCAUUAUUCUUUCUCGAUCAGUUGUCUUU
B2: Ia_S4_P5E.1_K5.1_C5.1_H5.1_A5.1_[A7C]_F5.1_T5.1 (ssRNA)
RNA: UUUGACAACUGAUCGUUCUUUCUUGUAUUCUUAUUCUUUCUCGAUCAGUUGUCUUU
B3: Ia_S4_P5E.1_K5.1_C5.1_H5.1_A5.1_[T6A]_F5.1_T5.1 (ssRNA)
RNA: UUUGACAACUGAUCGUUCUUUCUUGUAUAAUUAUUCUUUCUCGAUCAGUUGUCUUU

Target: T1, PUF4 RNA-binding domain
Assay: Mg; RNA-MaP; 20 mM Na-HEPES pH 7.4, 30 mM KOAc, 0.75 mM MgCl2, 0.1% Tween-20, 5% glycerol, 0.1 mg/mL BSA, 2 mM DTT; 25 C; 0.0125-409.6 nM protein
Details: tags: N-His6-TEV cleaved; C-SNAP kept, Cy3B-labelled; label: tethered on chip by stalled RNA polymerase

| Binder | Kd [nM] |
| --- | --- |
| UCUCUUUGUAGCCCGUCUCUU (ssRNA) [Ic_S1_P4E.1_K4.1_C4.1_H4.1_A4.1_[T5G]_[A6C]_[T7C]_F4.1_[T8C]_[A9G]_T4.1] | > 2300 |
| UCUCUUUGUAUUGGUCUCUU (ssRNA) [Ic_S1_P3E.1_K3.1_C3.1_H3.1_A3.1_[A6T]_F3.1_[T7G]_[A8G]_T3.1] | 1360 |
| UCUCUUUGUAAAACUCUCUU (ssRNA) [Ic_S1_P3E.1_K3.1_C3.1_H3.1_A3.1_[T5A]_F3.1_[T7A]_[A8C]_T3.1] | 369 |
| UCUCUUUGUAAACCUCUCUU (ssRNA) [Ic_S1_P3E.1_K3.1_C3.1_H3.1_A3.1_[T5A]_F3.1_[T7C]_[A8C]_T3.1] | 568 |
| UCUCUUUGUAUCGGUCUCUU (ssRNA) [Ic_S1_P3E.1_K3.1_C3.1_H3.1_A3.1_[A6C]_F3.1_[T7G]_[A8G]_T3.1] | 1940 |
| UCUCUUUGUAAUCCUCUCUU (ssRNA) [Ic_S1_P3E.1_K3.1_C3.1_H3.1_A3.1_[T5A]_[A6T]_F3.1_[T7C]_[A8C]_T3.1] | 812 |
| UCUCUUUGUAACAAUCUCUU (ssRNA) [Ic_S1_P3E.1_K3.1_C3.1_H3.1_A3.1_[T5A]_[A6C]_F3.1_[T7A]_T3.1] | 99.3 |
| UCUCUUUGUAUUCGUCUCUU (ssRNA) [Ic_S1_P3E.1_K3.1_C3.1_H3.1_A3.1_[A6T]_F3.1_[T7C]_[A8G]_T3.1] | 523 |
| UCUCUUUGUAUGAUUCUCUU (ssRNA) [Ic_S1_P3E.1_K3.1_C3.1_H3.1_A3.1_[A6G]_F3.1_[T7A]_[A8T]_T3.1] | 42.2 |
| UCUCUUUGUAACCAUCUCUU (ssRNA) [Ic_S1_P3E.1_K3.1_C3.1_H3.1_A3.1_[T5A]_[A6C]_F3.1_[T7C]_T3.1] | 959 |
| UCUCUUUGUAUUAGUCUCUU (ssRNA) [Ic_S1_P3E.1_K3.1_C3.1_H3.1_A3.1_[A6T]_F3.1_[T7A]_[A8G]_T3.1] | 349 |
| UCUCUUUGUAUCACUCUCUU (ssRNA) [Ic_S1_P3E.1_K3.1_C3.1_H3.1_A3.1_[A6C]_F3.1_[T7A]_[A8C]_T3.1] | 127 |
| UCUCUUUGUAGCGUGUCUCUU (ssRNA) [Ic_S1_P4E.1_K4.1_C4.1_H4.1_A4.1_[T5G]_[A6C]_[T7G]_F4.1_[A9G]_T4.1] | 2000 |
| UCUCUUUGUAUGGCUCUCUU (ssRNA) [Ic_S1_P3E.1_K3.1_C3.1_H3.1_A3.1_[A6G]_F3.1_[T7G]_[A8C]_T3.1] | 1730 |
| UCUCUUUGUAUGACUCUCUU (ssRNA) [Ic_S1_P3E.1_K3.1_C3.1_H3.1_A3.1_[A6G]_F3.1_[T7A]_[A8C]_T3.1] | 1070 |
| UCUCUUUGUAAUCGUCUCUU (ssRNA) [Ic_S1_P3E.1_K3.1_C3.1_H3.1_A3.1_[T5A]_[A6T]_F3.1_[T7C]_[A8G]_T3.1] | 867 |
| UCUCUUUGUAAAGCUCUCUU (ssRNA) [Ic_S1_P3E.1_K3.1_C3.1_H3.1_A3.1_[T5A]_F3.1_[T7G]_[A8C]_T3.1] | 1000 |
| UCUCUUUGUAUCCUUCUCUU (ssRNA) [Ic_S1_P3E.1_K3.1_C3.1_H3.1_A3.1_[A6C]_F3.1_[T7C]_[A8T]_T3.1] | 39.8 |
| UCUCUUUGUAAUAAUCUCUU (ssRNA) [Ic_S1_P3E.1_K3.1_C3.1_H3.1_A3.1_[T5A]_[A6T]_F3.1_[T7A]_T3.1] | 146 |
| UCUCUUUGUAAUUGUCUCUU (ssRNA) [Ic_S1_P3E.1_K3.1_C3.1_H3.1_A3.1_[T5A]_[A6T]_F3.1_[A8G]_T3.1] | 352 |
| UCUCUUUGUAACUGUCUCUU (ssRNA) [Ic_S1_P3E.1_K3.1_C3.1_H3.1_A3.1_[T5A]_[A6C]_F3.1_[A8G]_T3.1] | 389 |
| UCUCUUUGUAUGCCUCUCUU (ssRNA) [Ic_S1_P3E.1_K3.1_C3.1_H3.1_A3.1_[A6G]_F3.1_[T7C]_[A8C]_T3.1] | 1720 |

| Binder | Kd [nM] |
| --- | --- |
| UCUCUUUGUACAUAUCUCUU (ssRNA) [Ic_S1_P3E.1_K3.1_C3.1_H3.1_A3.1_[T5C]_F3.1_T3.1] | 5.88 |
| UCUCUUUGUAAACUUCUCUU (ssRNA) [Ic_S1_P3E.1_K3.1_C3.1_H3.1_A3.1_[T5A]_F3.1_[T7C]_[A8T]_T3.1] | 24 |
| UCUCUUUGUAUAUAUCUCUU (ssRNA) [If_S1_P3E.1_K3.1_C3.1_H3.1_A3.1_F3.1_T3.1] | 4.91 |
| UCUCUUUGUAAAAGUCUCUU (ssRNA) [Ic_S1_P3E.1_K3.1_C3.1_H3.1_A3.1_[T5A]_F3.1_[T7A]_[A8G]_T3.1] | 822 |
| UCUCUUUGUAAUUUUCUCUU (ssRNA) [Ic_S1_P3E.1_K3.1_C3.1_H3.1_A3.1_[T5A]_[A6T]_F3.1_[A8T]_T3.1] | 34 |
| UCUCUUUGUAUUAUUCUCUU (ssRNA) [Ic_S1_P3E.1_K3.1_C3.1_H3.1_A3.1_[A6T]_F3.1_[T7A]_[A8T]_T3.1] | 14.5 |
| UCUCUUUGUAAUCUUCUCUU (ssRNA) [Ic_S1_P3E.1_K3.1_C3.1_H3.1_A3.1_[T5A]_[A6T]_F3.1_[T7C]_[A8T]_T3.1] | 70.2 |
| UCUCUUUGUAUCGUUCUCUU (ssRNA) [Ic_S1_P3E.1_K3.1_C3.1_H3.1_A3.1_[A6C]_F3.1_[T7G]_[A8T]_T3.1] | 326 |
| UCUCUUUGUAUCAGUCUCUU (ssRNA) [Ic_S1_P3E.1_K3.1_C3.1_H3.1_A3.1_[A6C]_F3.1_[T7A]_[A8G]_T3.1] | 483 |
| UCUCUUUGUAACCUUCUCUU (ssRNA) [Ic_S1_P3E.1_K3.1_C3.1_H3.1_A3.1_[T5A]_[A6C]_F3.1_[T7C]_[A8T]_T3.1] | 81 |
| UCUCUUUGUAGCGUCUCUCUU (ssRNA) [Ic_S1_P4E.1_K4.1_C4.1_H4.1_A4.1_[T5G]_[A6C]_[T7G]_F4.1_[A9C]_T4.1] | 1710 |
| UCUCUUUGUAUAGUUCUCUU (ssRNA) [Ic_S1_P3E.1_K3.1_C3.1_H3.1_A3.1_F3.1_[T7G]_[A8T]_T3.1] | 11 |
| UCUCUUUGUAGCCACUCUCUU (ssRNA) [Ic_S1_P4E.1_K4.1_C4.1_H4.1_A4.1_[T5G]_[A6C]_[T7C]_F4.1_[T8A]_[A9C]_T4.1] | > 2300 |
| B1 | 2.73 |
| B2 | 5.51 |
| B3 | 4.42 |
| UCUCUUUGUAUGCUUCUCUU (ssRNA) [Ic_S1_P3E.1_K3.1_C3.1_H3.1_A3.1_[A6G]_F3.1_[T7C]_[A8T]_T3.1] | 434 |
| UCUCUUUGUAACUUUCUCUU (ssRNA) [Ic_S1_P3E.1_K3.1_C3.1_H3.1_A3.1_[T5A]_[A6C]_F3.1_[A8T]_T3.1] | 57.1 |
| UCUCUUUGUAAUCAUCUCUU (ssRNA) [Ic_S1_P3E.1_K3.1_C3.1_H3.1_A3.1_[T5A]_[A6T]_F3.1_[T7C]_T3.1] | 758 |
| UCUCUUUGUAUUGUUCUCUU (ssRNA) [Ic_S1_P3E.1_K3.1_C3.1_H3.1_A3.1_[A6T]_F3.1_[T7G]_[A8T]_T3.1] | 38.1 |
| UCUCUUUGUAUGGUUCUCUU (ssRNA) [Ic_S1_P3E.1_K3.1_C3.1_H3.1_A3.1_[A6G]_F3.1_[T7G]_[A8T]_T3.1] | 509 |
| UCUCUUUGUAUCGCUCUCUU (ssRNA) [Ic_S1_P3E.1_K3.1_C3.1_H3.1_A3.1_[A6C]_F3.1_[T7G]_[A8C]_T3.1] | 859 |

| Binder | Kd [nM] |
| --- | --- |
| UCUCUUUGUAAUACUCUCUU (ssRNA) [Ic_S1_P3E.1_K3.1_C3.1_H3.1_A3.1_[T5A]_[A6T]_F3.1_[T7A]_[A8C]_T3.1] | 560 |
| UCUCUUUGUAUUACUCUCUU (ssRNA) [Ic_S1_P3E.1_K3.1_C3.1_H3.1_A3.1_[A6T]_F3.1_[T7A]_[A8C]_T3.1] | 167 |
| UCUCUUUGUAAUUCUCUCUU (ssRNA) [Ic_S1_P3E.1_K3.1_C3.1_H3.1_A3.1_[T5A]_[A6T]_F3.1_[A8C]_T3.1] | 477 |
| UCUCUUUGUAAUGGUCUCUU (ssRNA) [Ic_S1_P3E.1_K3.1_C3.1_H3.1_A3.1_[T5A]_[A6T]_F3.1_[T7G]_[A8G]_T3.1] | 2030 |
| UCUCUUUGUAGCCGAUCUCUU (ssRNA) [Ic_S1_P4E.1_K4.1_C4.1_H4.1_A4.1_[T5G]_[A6C]_[T7C]_F4.1_[T8G]_T4.1] | > 2300 |
| UCUCUUUGUAUCCCUCUCUU (ssRNA) [Ic_S1_P3E.1_K3.1_C3.1_H3.1_A3.1_[A6C]_F3.1_[T7C]_[A8C]_T3.1] | 531 |
| UCUCUUUGUAACUCUCUCUU (ssRNA) [Ic_S1_P3E.1_K3.1_C3.1_H3.1_A3.1_[T5A]_[A6C]_F3.1_[A8C]_T3.1] | 373 |
| UCUCUUUGUAUAGCUCUCUU (ssRNA) [Ic_S1_P3E.1_K3.1_C3.1_H3.1_A3.1_F3.1_[T7G]_[A8C]_T3.1] | 82.1 |
| UCUCUUUGUAAUGUUCUCUU (ssRNA) [Ic_S1_P3E.1_K3.1_C3.1_H3.1_A3.1_[T5A]_[A6T]_F3.1_[T7G]_[A8T]_T3.1] | 329 |
| UCUCUUUGUAGCCGUUCUCUU (ssRNA) [Ic_S1_P4E.1_K4.1_C4.1_H4.1_A4.1_[T5G]_[A6C]_[T7C]_F4.1_[T8G]_[A9T]_T4.1] | > 2300 |
| UCUCUUUGUAAAGUUCUCUU (ssRNA) [Ic_S1_P3E.1_K3.1_C3.1_H3.1_A3.1_[T5A]_F3.1_[T7G]_[A8T]_T3.1] | 135 |
| UCUCUUUGUAACAGUCUCUU (ssRNA) [Ic_S1_P3E.1_K3.1_C3.1_H3.1_A3.1_[T5A]_[A6C]_F3.1_[T7A]_[A8G]_T3.1] | 491 |
| UCUCUUUGUAGCCCUUCUCUU (ssRNA) [Ic_S1_P4E.1_K4.1_C4.1_H4.1_A4.1_[T5G]_[A6C]_[T7C]_F4.1_[T8C]_[A9T]_T4.1] | > 2300 |
| UCUCUUUGUAGCGUUUCUCUU (ssRNA) [Ic_S1_P4E.1_K4.1_C4.1_H4.1_A4.1_[T5G]_[A6C]_[T7G]_F4.1_[A9T]_T4.1] | 964 |
| UCUCUUUGUAACAUUCUCUU (ssRNA) [Ic_S1_P3E.1_K3.1_C3.1_H3.1_A3.1_[T5A]_[A6C]_F3.1_[T7A]_[A8T]_T3.1] | 15 |
| UCUCUUUGUAUUCUUCUCUU (ssRNA) [Ic_S1_P3E.1_K3.1_C3.1_H3.1_A3.1_[A6T]_F3.1_[T7C]_[A8T]_T3.1] | 32.5 |
| UCUCUUUGUAGCCGGUCUCUU (ssRNA) [Ic_S1_P4E.1_K4.1_C4.1_H4.1_A4.1_[T5G]_[A6C]_[T7C]_F4.1_[T8G]_[A9G]_T4.1] | > 2300 |
| UCUCUUUGUAACACUCUCUU (ssRNA) [Ic_S1_P3E.1_K3.1_C3.1_H3.1_A3.1_[T5A]_[A6C]_F3.1_[T7A]_[A8C]_T3.1] | 531 |
| UCUCUUUGUAUUCCUCUCUU (ssRNA) [Ic_S1_P3E.1_K3.1_C3.1_H3.1_A3.1_[A6T]_F3.1_[T7C]_[A8C]_T3.1] | 113 |
| UCUCUUUGUAAUAGUCUCUU (ssRNA) [Ic_S1_P3E.1_K3.1_C3.1_H3.1_A3.1_[T5A]_[A6T]_F3.1_[T7A]_[A8G]_T3.1] | 645 |
